The text below walks through data of US20040258688A1.

Bounds are passed on as bounds.

The target of the experiment is murine DEC-205 (mouse) (UniProt Q60767). As to the kind of experiment: Alexa488-conjugated antibody (10 µg) injected s.c.; flow cytometry of CD11c+ cells.
Sequence of UniProt Q60767 (Q60767 28-1723 S1283P limits assumed): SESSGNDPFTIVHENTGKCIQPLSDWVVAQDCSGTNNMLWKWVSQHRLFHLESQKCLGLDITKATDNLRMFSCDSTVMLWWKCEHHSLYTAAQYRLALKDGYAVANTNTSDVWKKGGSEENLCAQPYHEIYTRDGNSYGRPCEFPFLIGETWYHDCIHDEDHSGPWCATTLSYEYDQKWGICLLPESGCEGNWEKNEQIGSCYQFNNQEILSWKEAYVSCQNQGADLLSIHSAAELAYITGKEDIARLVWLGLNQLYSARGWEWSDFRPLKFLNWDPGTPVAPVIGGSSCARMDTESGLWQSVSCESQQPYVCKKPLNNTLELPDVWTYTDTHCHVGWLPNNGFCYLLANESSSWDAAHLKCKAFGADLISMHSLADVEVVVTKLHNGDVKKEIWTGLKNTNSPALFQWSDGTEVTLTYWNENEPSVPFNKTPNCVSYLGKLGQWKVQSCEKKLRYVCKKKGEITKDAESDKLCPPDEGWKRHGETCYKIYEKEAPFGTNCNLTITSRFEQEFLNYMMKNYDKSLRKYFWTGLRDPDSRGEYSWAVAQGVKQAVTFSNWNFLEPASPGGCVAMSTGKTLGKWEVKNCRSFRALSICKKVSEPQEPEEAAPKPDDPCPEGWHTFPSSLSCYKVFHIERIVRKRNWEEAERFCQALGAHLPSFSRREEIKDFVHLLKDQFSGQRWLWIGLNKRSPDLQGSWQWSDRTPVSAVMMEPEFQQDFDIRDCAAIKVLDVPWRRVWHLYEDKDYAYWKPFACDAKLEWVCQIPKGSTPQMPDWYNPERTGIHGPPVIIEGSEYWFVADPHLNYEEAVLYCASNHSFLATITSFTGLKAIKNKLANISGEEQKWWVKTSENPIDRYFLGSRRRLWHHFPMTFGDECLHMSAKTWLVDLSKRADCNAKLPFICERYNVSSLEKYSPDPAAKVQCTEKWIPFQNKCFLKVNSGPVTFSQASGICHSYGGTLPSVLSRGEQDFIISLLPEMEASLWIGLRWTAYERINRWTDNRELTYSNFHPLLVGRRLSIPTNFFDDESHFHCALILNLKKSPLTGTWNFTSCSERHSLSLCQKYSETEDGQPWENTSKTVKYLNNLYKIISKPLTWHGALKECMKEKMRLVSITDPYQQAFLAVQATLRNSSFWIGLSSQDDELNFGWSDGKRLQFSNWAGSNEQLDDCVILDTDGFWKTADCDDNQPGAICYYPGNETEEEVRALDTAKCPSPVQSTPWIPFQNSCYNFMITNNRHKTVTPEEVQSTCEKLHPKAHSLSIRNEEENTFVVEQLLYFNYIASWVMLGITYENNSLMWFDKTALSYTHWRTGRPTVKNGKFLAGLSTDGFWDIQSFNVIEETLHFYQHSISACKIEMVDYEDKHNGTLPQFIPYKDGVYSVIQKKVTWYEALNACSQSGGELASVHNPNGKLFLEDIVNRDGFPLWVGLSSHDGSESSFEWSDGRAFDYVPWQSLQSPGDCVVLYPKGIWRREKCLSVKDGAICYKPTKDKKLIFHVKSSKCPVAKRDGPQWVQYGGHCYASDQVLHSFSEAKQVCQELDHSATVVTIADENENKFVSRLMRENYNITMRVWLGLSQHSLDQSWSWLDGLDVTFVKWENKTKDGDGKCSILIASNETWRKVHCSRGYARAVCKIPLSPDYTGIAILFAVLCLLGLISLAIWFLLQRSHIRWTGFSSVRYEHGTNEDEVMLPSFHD

NLDC-145 monoclonal antibody to DEC-205 came in with a percent of distal lymph node DCs loaded with injected antibody at 6 hrs of 40%, a percent of draining lymph node DCs loaded with injected antibody at 6 hrs of over 50% and a percent of spleen DCs loaded with injected antibody at 6 hrs of 30%.
